Measured values taken from US20160289304A1 (VIRO DYNAMICS, published 2016).

Tests used:
[1] = target: T1, hemagglutinin (HA) of A/Puerto Rico/8/1934 (PR8, H1N1) (Influenza A virus A/Puerto Rico/8/1934 …, UniProt P03452 18-565); assay: cell-based or functional assay
[2] = target: T1, hemagglutinin (HA) of A/Puerto …; assay: cell-based or functional assay; remark: listed apart in the source
[3] = target: synthetic peptide #34 […] (Influenza A virus A/Puerto Rico/8/1934 …); assay: peptide ELISA, peptide coated at 10 µg/ml, mAb at 1 µg/ml
[4] = target: synthetic peptide #39 […] (Influenza A virus A/Puerto Rico/8/1934 …); assay: as above

Row | Binder | concentration for complete neutralization of PR8, plaque inhibition assay [1] [µg/mL] | in ovo neutralization, concentration for complete blocking of PR8 growth [1] [µg/mL] | HI Titer to PR8 [2] [reciprocal dilution] | binding result [3] | binding result [4]
1 | 39-3F2-2A6 (mAb-2A6) (antibody, V domains shown, also called HANA 39-3F2-2A6; sample 22b) VH: DVKLVESGGGLVKPGGSLKLSCAASGFTFSSYTMSWVRQTPEKRLEWVATISSGGIYTYYPDSVKGRFTISRDNAKNTLYLQMNSLKSEDTAMYYCVRSTSYYFDYWGQGTTLTVSS VL: DIVMTQSPSSLTVTAGEKVTMSCKSSQSLLSDGSQKNYLTWCQQKPGQPPKLLIYWASTRESGVPDRFTGSGSGTDFTLTISSVQAEDLGVYYCQNDHSYPLTFGAGTKLELK | 0.1 | 16 | 80 | binds | –
2 | 39-4D12-2D11 (mAb-2D11) (antibody, V domains shown, also called HANA 39-4D12-2D11; sample 28b) VH: DVKLVESGGGLVKPGGSPKLSCAASGFTFSSYTMSWVRQTPEKRLEWVATISSGGSYTYYPDSLKGRFTISRDNAKNTLYLQMSSLKSEDTAIYHCVRSTSYYFDYWGQGTTLTVSS VL: DIVMTQSPSSLTVTAGEKVTMNCKSSQSLLSDGSQKNYLTWCQQKPGQPPKLLIYWASTRESGVPDRFTGSGSGTDFTLTIDSVQAEDLGIYYCQNDHSYPLTFGAGTKLELK | 0.1 | 4 | 20 | – | binds
3 | 56-2G9-1B3 (mAb-1B3) (antibody, V domains shown) VH: EVQLVESGGGLVKPGGSLKLSCAASGFIFSSYVMSWVRQTPEKRLEWVATISSGGTNTYYPDSVKGRFTISRDNAKNTLYLQMSSLRSEDTAIYYCVRSYRYYFDYWGQGTTLTVSS VL: DIVMTQSPSSLTVTAGEKVTMSCKSSQSLLNSGSQKNYLTWFQQKPGQSPKLLIYWASSRESGVPDRFTGSGSGTDFTLTISSVQAEDLAVYYCQNDSNYPLTFGAGTKLELK | 0.1 | 8 | 40 | – | –
